According to IntAct's records for PubMed 20972448:

Target: xpo1_mouse Xpo1 (UniProt Q6P5F9)
Sequence of UniProt Q6P5F9 (Q6P5F9 whole entry): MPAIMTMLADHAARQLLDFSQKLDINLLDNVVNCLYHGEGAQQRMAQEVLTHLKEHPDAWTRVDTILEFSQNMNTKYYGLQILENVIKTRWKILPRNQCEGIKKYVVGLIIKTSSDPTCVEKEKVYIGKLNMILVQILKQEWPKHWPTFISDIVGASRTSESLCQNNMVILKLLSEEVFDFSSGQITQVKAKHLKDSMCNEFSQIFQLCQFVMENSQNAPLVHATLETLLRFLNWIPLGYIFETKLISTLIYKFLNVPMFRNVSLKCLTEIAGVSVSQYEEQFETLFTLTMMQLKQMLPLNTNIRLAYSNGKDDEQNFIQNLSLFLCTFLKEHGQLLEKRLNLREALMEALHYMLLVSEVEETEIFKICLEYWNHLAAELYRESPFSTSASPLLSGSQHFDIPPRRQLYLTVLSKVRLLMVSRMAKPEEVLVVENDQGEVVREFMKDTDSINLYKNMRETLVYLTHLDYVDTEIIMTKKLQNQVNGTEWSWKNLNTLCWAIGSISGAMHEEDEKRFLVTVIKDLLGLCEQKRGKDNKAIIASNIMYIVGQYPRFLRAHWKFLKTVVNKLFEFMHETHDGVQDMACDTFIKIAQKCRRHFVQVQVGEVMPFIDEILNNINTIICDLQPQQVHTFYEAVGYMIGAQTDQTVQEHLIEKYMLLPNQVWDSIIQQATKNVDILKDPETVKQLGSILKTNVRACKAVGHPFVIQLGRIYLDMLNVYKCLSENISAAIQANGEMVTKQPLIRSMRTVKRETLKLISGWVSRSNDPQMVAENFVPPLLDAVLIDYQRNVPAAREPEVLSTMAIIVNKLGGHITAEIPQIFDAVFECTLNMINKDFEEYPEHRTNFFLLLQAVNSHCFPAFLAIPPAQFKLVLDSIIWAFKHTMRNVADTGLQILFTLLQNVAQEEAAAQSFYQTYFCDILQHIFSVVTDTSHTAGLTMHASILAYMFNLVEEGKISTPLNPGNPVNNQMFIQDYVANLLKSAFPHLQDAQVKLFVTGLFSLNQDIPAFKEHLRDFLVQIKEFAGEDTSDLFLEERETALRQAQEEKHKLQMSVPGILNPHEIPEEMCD

effect of a mutation on the interaction: increasing interaction
Substance: cAMP-dependent protein kinase inhibitor alpha (Homo sapiens) (from UniProt P61925) S35L
